Laboratory results as given in publication PMC5161667 (Nature, 2016).

Experiments:
[1] = molecular target: ExbD_(E113C) (E. coli (K-12 strain)) (UniProt P0ABV2); experiment: cross-linking
[2] = molecular target: ExbD_(E113C) labeled with MTSL (E. coli (K-12 strain)) (UniProt P0ABV2); experiment: DEER spectroscopy
[3] = molecular target: ExbD_(N78C) labeled with MTSL (Ton subcomplex) (E. coli (K-12 strain)) (UniProt P0ABV2); experiment: DEER spectroscopy
[4] = molecular target: ExbD_(N78C) labeled with MTSL (fully assembled Ton complex) (E. coli (K-12 strain)) (UniProt P0ABV2); experiment: DEER spectroscopy
crystal structure [5] = molecular target: the molecule itself; experiment: crystal structure
crystal structure [6] = molecular target: the molecule itself; experiment: crystal structure; remark: listed apart in the source
DEER spectroscopy = molecular target: the molecule itself; experiment: DEER spectroscopy

Work on “ExbD_(E113C) (from UniProt P0ABV2 1-141) (natural protein)” yielded a stoichiometry N [1] of 2.

For “ExbD_(E113C) labeled with MTSL (from UniProt P0ABV2 1-141) (natural protein)”, the stoichiometry N [2] was 2.

“ExbD_(N78C) labeled with MTSL (Ton subcomplex) (from UniProt P0ABV2 1-141) (natural protein)” gave a stoichiometry N [3] of 2.

Molecule “ExbD_(N78C) labeled with MTSL (fully assembled Ton complex) (from UniProt P0ABV2 1-141) (natural protein)” has a stoichiometry N [4] of 2.

B1: ExbB (natural protein, E. coli (K-12 strain), UniProt P0ABU7 1-244, looked up)
chain: MGNNLMQTDLSVWGMYQHADIVVKCVMIGLILASVVTWAIFFSKSVEFFNQKRRLKREQQLLAEARSLNQANDIAADFGSKSLSLHLLNEAQNELELSEGSDDNEGIKERTSFRLERRVAAVGRQMGRGNGYLATIGAISPFVGLFGTVWGIMNSFIGIAQTQTTNLAVVAPGIAEALLATAIGLVAAIPAVVIYNVFARQIGGFKAMLGDVAAQVLLLQSRDLDLEASAAAHPVRVAQKLRAG
For B1, the “stoichiometry N” value (crystal structure [5]) was 5.

B2: ExbB_(C25S), selenomethionine-substituted (natural protein, E. coli (K-12 strain), UniProt P0ABU7 1-244, looked up)
chain: MGNNLMQTDLSVWGMYQHADIVVKSVMIGLILASVVTWAIFFSKSVEFFNQKRRLKREQQLLAEARSLNQANDIAADFGSKSLSLHLLNEAQNELELSEGSDDNEGIKERTSFRLERRVAAVGRQMGRGNGYLATIGAISPFVGLFGTVWGIMNSFIGIAQTQTTNLAVVAPGIAEALLATAIGLVAAIPAVVIYNVFARQIGGFKAMLGDVAAQVLLLQSRDLDLEASAAAHPVRVAQKLRAG
modifications: selenomethionine-substituted
With B2 the “stoichiometry N” value (crystal structure [6]) was 5.

B3: ExbB labeled at C25 with MTSL (natural protein, E. coli (K-12 strain), UniProt P0ABU7 1-244, looked up)
chain: MGNNLMQTDLSVWGMYQHADIVVKCVMIGLILASVVTWAIFFSKSVEFFNQKRRLKREQQLLAEARSLNQANDIAADFGSKSLSLHLLNEAQNELELSEGSDDNEGIKERTSFRLERRVAAVGRQMGRGNGYLATIGAISPFVGLFGTVWGIMNSFIGIAQTQTTNLAVVAPGIAEALLATAIGLVAAIPAVVIYNVFARQIGGFKAMLGDVAAQVLLLQSRDLDLEASAAAHPVRVAQKLRAG
modifications: MTSL spin label on Cys25 (50% labeling efficiency)
For B3, the “stoichiometry N” value (DEER spectroscopy) was 5.
